Reference: article PMC4833948

Columns and labels:
[1] = molecular target: hNHE1cdt D1D2-(AXA)2 (human) (UniProt P19634)
[2] = molecular target: hNHE1cdt D3-AXA (human) (UniProt P19634)
[3] = molecular target: hNHE1cdt F1-A (human) (UniProt P19634)
[4] = molecular target: hNHE1cdt F2-AA (human) (UniProt P19634)
[5] = molecular target: human NHE1 C-terminal distal tail, M + I680-Q815 (hNHE1cdt WT) (human) (UniProt P19634)

“active ERK2 (aERK2) (from UniProt P28482 1-360) (enzyme)” gave a k app of phosphorylation of S693 of hNHE1cdt by aERK2 (time-resolved NMR, 25 °C) [1] of 0.319 h⁻¹, a k app of phosphorylation of S723/S726 of hNHE1cdt by aERK2 (decrease of the S723 peak; time-resolved NMR, 25 °C) [1] of 0.061 h⁻¹ and a k app of phosphorylation of S771 of hNHE1cdt by aERK2 (time-resolved NMR, 25 °C) [1] of 0.0066 h⁻¹. It also gave a k app of phosphorylation of S785 of hNHE1cdt by aERK2 (time-resolved NMR, 25 °C) [1] of 0.0302 h⁻¹, a k app of phosphorylation of T779 of hNHE1cdt by aERK2 (time-resolved NMR, 25 °C) [1] of 0.157 h⁻¹ and a k app of phosphorylation of S693 of hNHE1cdt by aERK2 (time-resolved NMR, 25 °C) [2] of 0.349 h⁻¹. The k app of phosphorylation of S723/S726 of hNHE1cdt by aERK2 (decrease of the S723 peak; time-resolved NMR, 25 °C) [2] was 0.0592 h⁻¹, the k app of phosphorylation of S771 of hNHE1cdt by aERK2 (time-resolved NMR, 25 °C) [2] was 0.007 h⁻¹ and the k app of phosphorylation of S785 of hNHE1cdt by aERK2 (time-resolved NMR, 25 °C) [2] was 0.0325 h⁻¹. The k app of phosphorylation of T779 of hNHE1cdt by aERK2 (time-resolved NMR, 25 °C) [2] was 0.141 h⁻¹, the k app of phosphorylation of S693 of hNHE1cdt by aERK2 (time-resolved NMR, 25 °C) [3] was 0.3 h⁻¹ and the k app of phosphorylation of S723/S726 of hNHE1cdt by aERK2 (decrease of the S723 peak; time-resolved NMR, 25 °C) [3] was 0.0741 h⁻¹. It also gave a k app of phosphorylation of S771 of hNHE1cdt by aERK2 (time-resolved NMR, 25 °C) [3] of 0.0047 h⁻¹, a k app of phosphorylation of S785 of hNHE1cdt by aERK2 (time-resolved NMR, 25 °C) [3] of 0.0088 h⁻¹ and a k app of phosphorylation of T779 of hNHE1cdt by aERK2 (time-resolved NMR, 25 °C) [3] of 0.147 h⁻¹. For the same substance, the k app of phosphorylation of S693 of hNHE1cdt by aERK2 (time-resolved NMR, 25 °C) [4] was 0.444 h⁻¹, the k app of phosphorylation of S723/S726 of hNHE1cdt by aERK2 (decrease of the S723 peak; time-resolved NMR, 25 °C) [4] was 0.127 h⁻¹ and the k app of phosphorylation of S771 of hNHE1cdt by aERK2 (time-resolved NMR, 25 °C) [4] was 0.0088 h⁻¹. It also gave a k app of phosphorylation of S785 of hNHE1cdt by aERK2 (time-resolved NMR, 25 °C) [4] of 0.012 h⁻¹, a k app of phosphorylation of T779 of hNHE1cdt by aERK2 (time-resolved NMR, 25 °C) [4] of 0.144 h⁻¹ and a k app of phosphorylation of S693 of hNHE1cdt by aERK2 (time-resolved NMR, 25 °C) [5] of 0.349 h⁻¹. The k app of phosphorylation of S723/S726 of hNHE1cdt by aERK2 (decrease of the S723 peak; time-resolved NMR, 25 °C) [5] was 0.0821 h⁻¹, the k app of phosphorylation of S771 of hNHE1cdt by aERK2 (time-resolved NMR, 25 °C) [5] was 0.0088 h⁻¹ and the k app of phosphorylation of S785 of hNHE1cdt by aERK2 (time-resolved NMR, 25 °C) [5] was 0.0305 h⁻¹. The k app of phosphorylation of T779 of hNHE1cdt by aERK2 (time-resolved NMR, 25 °C) [5] was 0.165 h⁻¹.
